Measured values from the nanobody polyreactivity screen of Harvey et al. (2022).

assay: yeast display, Sf9 membrane polyspecificity reagent, FACS + sequencing; frameworks hold sequencing errors
In short: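 Sorting gates, low and high (top ~1%), were placed on anti-HA fluorescence to track expression and on streptavidin fluorescence to track reagent binding. A clone's polyreactivity label is taken from the gate it came out of. The reagent was 10% biotinylated, detergent-solubilized Sf9 membrane, applied for 1 hour at 4 °C to galactose-induced yeast display cells.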

Sequence | polyreactivity (PSR sort gate)
QVQLVESGGGLVQAGGSLRLSCAASGITFSGYDMGWYRQAPWKERELVASSTYYADSVKGRFTISRDNAKNTVYLQMNSLKPEDTAVYYCAADSPGDFGGYGFDYWGQGTQVTVSS | high polyreactivity
QVQLVESGGGLVQAGGSLRLSCAASGRTFWSNAMGWYIQAPGKERELVAVIYTTTGNTYYADSVKGRFSISRDYAKNTVYLQMNSLKPEDTAVYYCNTRSGAFFLSKPYDYWGQGTQVTVSW | low polyreactivity
QVQLVESGGGLVQAGGSLRLSCAASGSIFSFYTMGWYRQAPGKERELVATISWRSGSTYYADSVKGRFTISRDNAKNTVYLQMNSLKPEDTAVYYCARSTSRYYYWGQGTQVTVSS | high polyreactivity
QVQLVESGGGLVQAGGSLRLSCAASGITFKGYTMGWYRQAPGKEREFVAAISWGGGRTYYADSVKGRFTISRDNAKNTVYLQMNSLKPEDTAVYYCNGAPYTRALQGEFDYWGQGTQVTVSS | high polyreactivity
QVQLVESGGGLVQAGGSLRLSCAASGIIFGINAMGWYRQAPGKERELVATITSGGGTNYADSVKGRFTISRDNAKNTVYLQMNSLKPEDTAVYYCAKPTYRFYWGDFDYWGQGTQVTVSS | low polyreactivity
QVQLLESGVGLVQAGGSLRLSCAASGSILYINALGWSRPAPGKARELVAAITYSGGSTYYADSVKGRFTISRDNAKKPVYLQMNSLKPEDTAVYYCAADAVVAGRYDGHAYWGQGTQVTVSS | low polyreactivity
QVQLVESGGGLVQAGGSLRLSCAASGLTFAWYTMGWYRQAPGKERELVADIDQSGSTYYADSVKGRFTISRDNAKNTVYLQMNSLKPEDTAVYYCNAYWSNFLYPFDYWGQGTQVTVSS | high polyreactivity
QVQLVDSGGGLVQAGGSLRLSCAASGITSHYYAMGWYRQAPGKERELVAAITSSGSTYYADSVKGRFTISRDNAKNTVYLQMNSLKPEVTAVYYCATTVWYKKAPYPDGDYWGQGTQVTVSS | low polyreactivity
QVQLVESGGVLVQAGGSLRLSCAASGRIFGENAMGWYRQAPGKEREFVAVISISDASTYYADSVKGRFTISRDNAKNTVYLQMNSLKPEDTAVYYCADDLTDFLYVASDYWGQGTQVTVSS | low polyreactivity
QVQLVESGGGLVQAGGSLRLSCAASGFTFNANAMGWYRQAPGKERELVAVNTRSGGRTYYADSVKGRFTISRDNAKNTVYLQMNSLKPEDTAVYYCAKEGPSRVYQGTDSASDYWGQGTQVTVSS | high polyreactivity
QVQLVESGGGLVQAGGSLRLSCAASGSIVAYNAMAWYRQAPGKEWELVAAINSGSLTYYADSVTGRFTISRDNAKYTVYLPMNSLKPEDTAVYYCAAEWERWYYRYDYWGQGTQVTVSS | high polyreactivity
QVQLVESGGGLVQAGGSLRLSCAASGLIFYQYAMGWYRQAPGKERELVAAINWSGGSTYYADSVKGRFTISRDNAKNTVYLQMNSLKPEDTAVYYCAADTAFRFALTRYRPMDYWGQGTQVTVSS | high polyreactivity
QVQLVESGGGLVQAGGSLRLSCAASGFIFTYYAMGWYRPAPGKERELVATISSGGGSTYYADSVKGRFTISRDNAKNTVYLQMNSLKPEDTAVYYCAASRRITGIRYLNRYEYWGQGTQVTVSS | high polyreactivity
QVQLVESGGGLVQAGGSLRLSCAASGITFTFYAMGWYRQAPGKERELVAAISRRGGSTYYADSVKGRFTISRDNAKNTVYLQMNSLKPEDTAVYYCAARGYRPMDYWGQGTQVTVSS | high polyreactivity
QVQLVESGGGLVQAGGSLRLSCAASGSIFSRNAMGWYRQAPGKEREFVARISWSSTSTNYADSVKGRFTISRDNAKNPVYLQMNSLKPEDTAVYYCAADFRGDRRFDYWGQGTQVTVSS | low polyreactivity
QVQLVESGGGLVQAGGSLRLSCAASGRIFGRYVMGWYRQAPGKERELVAAITSRDDSTYYADSVKGRFTISRDNAKNTVYLQMTSLKPEDTAVYYCAATWGRGYDYWGQGTQVTVSS | high polyreactivity
QVQLVESGGGLVQAGGSLRLSCAASGFTFSSYAMGWYRQAPGKERELVARISSGSSTNYADSVKGRFTISRDNAKNTVYLQMNSLKPEDTAVYYCAARYTARRQSYGYWGQGTQVTVSS | high polyreactivity
QVQLVESGGGLVQAGGSLRLSCAASGRTFRRNAMGSYRQAPGKERELVATITGGGTNYADSVKGRFTISRDNAKNTVYLQMNSLKPEDTAVYYCAVGTRFYVPRRFDYWGQGTQVTVSS | high polyreactivity
QVQLVESGGGLVQAGGSLRLTCAASGSIFGNAMGWYREAPGKEREIVAAISSSGSSTYYADSVKGRFTMSRDTAKNTVYLQMNSLKPADTAVYYCNKGSRRYHGYDYWGQGTQVTVSS | high polyreactivity
QVQLVESGGGLVQAGGSLRLSCAAYGRTFASYALGWYRQAPGKEREFVAVISVNGGNTYYADSVKGRFTISRDNAKNTVYLQMNSLKPEDTAVYYCARFDGWYQGYYPLYEFDYWGQGTQVTVSS | high polyreactivity
QVQLVESGGGLVQAGGSLRLSCAASGFTFGSYAMGWYRQAPGKERELVAAIRQSATRTYYADSVKGRFTISRDNAKNTVYLQMNSLKPEDTAVYYCNVARPGKYFYIYDYWGQGTQVTVSS | low polyreactivity
QVQLVESGGGLVQAGGSLRLTCAASGYIIDWNTMVCYRHEPGKERELVAAITESSGSTYYADSVKGRFTISRDNAKNTVYLQMNSLKPEDTAVYYCAAELDVFVSICSRFHFEYWGQGTQVTVSS | low polyreactivity

Sequence | polyreactivity (PSR sort gate)
QVQLVESGGGLVQAGGSLRLSCAASGSFINRYAMGWYRQAPGKERELVAAITQSGGRTYYADSVKGRFTISRDNAKNTVYLQMNSLKPEDTAVYYCNAVRWYLYDYWGQGTQVTVSS | high polyreactivity
QVQLVESVGGLVQAGGSLRLSCAASGIIFRANAMGWYRQAPGKERELVAAISGRGSSTTYADSVKGRFTISRDNAKNTVYLQMNSLKPEDTAVYYCAAGYGKWFATWRSQKYDYWGQGTQVTVSS | high polyreactivity
QVQLVESGGGLVQAGGSLRLSCAASGRTFSNYAMGWYRQAPGKERELVAAITGSGGSTYYADSVKGRFTISRDNAKNTVYLQLISLKPEDTAVYYCNAYRASKYLTGNGHDYWGQGTQVTVSS | low polyreactivity
QVQLVESGGGLVQAGGSLRLSCAASGITFRYYAMGWYRQAPGKERELVADINRGSDTNYADSVKGRFTISRDNAKNTVYLQMNSLKPEDTAVYYCNAYWQGYGYDYWGQGTQVTVSS | low polyreactivity
QVQLVESGGGLVQAGGSLRLSCAASGSTYRYVMGWYRQAPGKERELVAAITYTGGSTYYADSVKGRFTISRDNAKNTVYLQMNSLKPEDTAVYYCAASRYYTFDYWGQGTQVTVSS | high polyreactivity
QVQLVESGGGLVQAGGSLRLSCAASGRILYIYAMGWYRQAPGKERELVAAIRSSGGSTYYADSVKGRFTISRDNAKNSVYLQMNSLKPDDTAVYYCAATSRVSKSHLYGYWGQGTQVTVSS | high polyreactivity
QVQLVESGGGLVQAGGSLRLSCAASGFIFDSYAMGWYRQAPGKERELVAAISWSGGRTYYADSVKGRFTISRDNAKNTVYLQMNSLKPEDTAVYYCNVRTKLSTSYDYWGQGTQVTVSS | high polyreactivity
QVQLVESGGGLVQAGGSLRLSCAASGRILGKNALGWYRQAPGKEREWVADISGRGDRTHYADSVKGRFTISRDNAKNTVYLQMNSLNAEYTAVYYCAKYHHPPGKGQSVSLGYDFWGQGTQVTVSS | low polyreactivity
QVQLVESGGGLVQAGGSLRLSCAASGRTFRRYAMGWYRQAPGKERELVATITNAGSTYYADSVKGRFTISSDNAKNTVYLQMNSLKPEDTSVYYCAARVPYKSDYWGQGTQVTVSS | low polyreactivity
QVQLVESGGGLVQAGGSLRLSCAASGSTFYTYDMGWYRQAPGKERELVASITSGGSTNYADSVKGRFTISRDNAKNTVYLQMNSLKPEDTAVYYCAVGTYTIYSGTLYDYKYYWGQGTQVTVSS | low polyreactivity
QVQLVESGGGLVQAGGSLRLSCAASGIFTYNAMGWYRQAPGKERELVASITRGGSTNYADSVKGRFTISLDNAKNTVYLQRNSLKPEDTAVYYCAARVRVYSGWLYNYWGQGTQVTVSS | high polyreactivity
QVQLVESGGGLVQAGGSLRLSCAASGRTFYGYAMGWYRQAPGKERELVAGITFRGSSTYYADSVKGRFTISRDNAKNTVYLQMNSLKPEDTAVYYCNVPYGNSHVGYDYWGQGTQVTVSS | high polyreactivity
KVQLVESGGGLVQAGGSLRLSCAASGIIFNLYAMGWSRQAPGKERELVAAITSSGTSTYYADSVKGRFTISRDNAKNTLYLQMNSLKPEDTAVYYCAADRGFYYFVEYDYWGQGTQVTVSS | high polyreactivity
QVQLVESGGGLVQAGGSLRLSSAATGYIYSHNAMGWYRQSPGKEREFVAGIDSSGGSTSYADSVKGRFTISRDNAKNTVYLQMNSLKPEDTAVYYCAADRTGSHFDYCGQGTQVTVSS | low polyreactivity
QVQLVESGGGLVQAGGSLRLRCAASGRTFCWYAMGWYRQAPGKERELVADITYSGGNTYYADSVKGRFTITRDNAKNTVYLQMNSLKPEDTAVYYCAAERKNKYDYWGQGTQVTVTS | high polyreactivity
QVQLVESGGGLVQAGGSLRLSCAASGRTFDNYAMGWYRQAPGKERELVAAISSSGGRTYYADSVKGRFTISRDNAKNTVYLQMNSLKPEDTAVYYCAAVWPVYRTHPGMDYWGQGTQVTVSS | high polyreactivity
QVQLVESGGGLVQAGGSLRLSCAASGSIFYVYVMGWYRQAPGKERELVAAIDTGGGDTYYADSVKGRFTISRDNAKNTVYLQMNSLKPEDTAVYYCSTSGPQYYSRNFDYWGQGTQVTVSS | low polyreactivity
QVQLVESGGGLVQAGGSLRLSCAASGSTLYYNAMGWYRQAPGKERELVAAITSGGSTSYADSVKGRFTISRDNAKNTVYLQMNSLKPEDTAVYYCAAVFYRRFDYWGQGTQVTVSS | low polyreactivity
QVQLVESGGGLVQAGGSLRLSCAASGRIFPDNTMGWYRQAPGTERELVAAITSSGGSTYYADSVKGRFTISRDNAKNTVYLQMNSLKPEDTAVYYCAAAVKRGYAQSFISDGYGYWGQGTQVTVSS | low polyreactivity
QVQLVESGGGLVQAGGSLRLSCAASGYIIYVYAMGWYRQAPGKERELVADISLNGGSTYYADSVKGRFTISRDNAKNTVYLEMNSLKPEDTAVYYCAADGWLYRTYWYYYWGQGTQVTVSS | high polyreactivity
QVQLVYSGGGLVQAGGSLRLSCAASGSIFFVYAMGWYRQAPGKERELDAAITSGGSTKDADSVKGRFTISRDNAKNTVYLQMNSLKPEDTAVYYCAKDYKCIATEGAFDYWGQGTQVTVSS | low polyreactivity
